For assay [1], the system named is CD19-specific CAR T cells. The assay is classed as cell-based. The following applies: recombinant murine IFNβ in IL2. On the procedure: FIGS. 8A-8D. CD19 CAR T cells treated with IFNβ in vitro. EGFRvIII-specific CAR T cells (with the scFv 139) and CD19-specific CAR T cells (with the scFv FMC63) were cultured in IL2 in the absence or presence of recombinant murine IFNβ, and CAR expression on the surface was measured using Biotin-Protein L and recognized with streptavidin-PE (Protein L+SA PE). Representative staining is shown in FIG. 8A, and the mean of three technical replicates was quantified in FIG. 8B. FIG. 8C: Representative expression of the activation markers CD25 and CD69 were shown for CAR T cells cultured as in FIG. 8A. FIG. 8D: Inhibitory receptor expression (PD1, LAG3, and TIM3) was quantified on CD8 CAR T or UTD cells cultured as in FIG. 8A. Average expression of three technical replicates is shown.

Another assay deals with CD8 CAR T cells. The assay is classed as cell-based, murine.

B1: recombinant IFNβ: recombinant murine interferon β added to CAR T cell cultures (protein, UniProt P01575 22-182, looked up)
Interferon beta: INYKQLQLQERTNIRKCQELLEQLNGKINLTYRADFKIPMEMTEKMQKSYTAFAIQEMLQNVFLVFRNNFSSTGWNETIVVRLLDELHQQTVFLKTVLEEKQEERLTWEMSSTALHLKSYYWRVQRYLKLMKYNSYAWMVVRAEIFRNFLIIRRLTRNFQN
Turning to B1, in assay [1], the “CAR expression on the surface of CD19-specific CAR T cells” value is given as “promoted higher expression levels of the CAR molecule”; the “activation phenotype (CD25, CD69) of CD19-specific CAR T cells” value is reported as “supported an activated phenotype”; the “inhibitory receptor expression of CD19-specific CAR T cells over untransduced cells” value is “not associated with increased levels of inhibitory receptor expression”. Besides, in the assay with CD8 CAR T cells, the “CAR expression on the surface of transduced CD8 T cells” value is reported as “dose-dependent increase was observed in CAR expression”; the “expression of the exhaustion markers Lag3, PD1, and Tim 3” value was “dose dependent increase in expression of the exhaustion markers Lag3, PD1, and Tim 3”; the “proportion of AnnexinV positive apoptotic cells” value is “dose-dependent increase in the proportion of AnnexinV positive apoptotic cells”; the “proportion of triple positive cells (Lag3, PD1, Tim3)” value is “dramatically increased by IFNβ between 0 and 1 ng/mL, and plateaued at higher doses”.

Source of the values: patent US12121554B2 (priority 2018, dated 2024).
